Assays:
NT-biotin hepcidin-25 = molecular target: T1, NT-biotin hepcidin-25 (NT-biotin (biotin label; NT is not spelled out, taken as the N-terminus)); test: Biacore (SPR); 5 µg/ml 583
T1 peptide: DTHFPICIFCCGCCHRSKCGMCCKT

K18-biotin hepcidin-25 = molecular target: T2, K18-biotin hepcidin-25 (biotin on K18); test: Biacore (SPR); 5 µg/ml 583
T2 peptide: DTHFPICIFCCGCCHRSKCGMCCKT

Ka (NT-biotin hepcidin-25): 5.47e+10 M⁻¹
Ka (K18-biotin hepcidin-25): 1.34e+11 M⁻¹
B1: murine anti-hepcidin MAb 583 (antibody, V domains shown)
VH: QIQLVQSGPELKKPGETVKISCKASGYTFTNYGMNWVKQAPGKGLKWMGWINTYTGEPTYADDFKGRFAFSLETSASTAYLQINNLKNEDTATYFCTTYATSWYWGQGTTLTVSS
VL: DIVLTQSPASLAVSLGQRATISCRASESVDSYGNSFMHWYQQKPGQPPKLLIYRASNLESGIPARFSGSGSRTDFTLTINPVEADDVATYYCQQSNEDLTFGGGTKLEIK

— US20170283495A1 (published 2017)
